Data on eleven molecules can be found in patent US20180273635A1 (Zymeworks, published 2018).

Assay [1] addresses T1, Recombinant human HER2 (human, UniProt P04626 23-652).
T1 construct: extracellular domain; analyte of the SPR assays; also called HER2 ECD; ECD2 of HER2
The assay is described as follows: SPR, pre-SEC; ratio to WT v10013.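 Also: SPR on Biacore T200 at 25 °C, constructs captured via anti-human Fc on CM5 chip, HER2 ECD as analyte, 1:1 Langmuir global fit, after protein A purification.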 In general terms: Surface plasmon resonance follows binding to a sensor surface in real time, without labels.
Description: (§1) The affinity towards HER2 ECD of the samples was measured by SPR on a Biacore T200 as follows. Between 2000 and 4000 RU of anti-human Fc injected at concentration between 5 and 10 μg/ml was immobilized on a CM5 chip using standard amine coupling. Antigen-binding constructs were captured on the anti-human Fc (injected at concentration at 0.51 microg/mL in PBST, 1 min at 10 microl/min) at response levels ranging from 120-270 RU. […] HER2 dilutions were analyzed in duplicates. Sensograms were fit globally to a 1: 1 Langmuir binding model, using the software provided with the Biacore T200. All experiments were conducted at 25° C.
(§2) The affinity of antigen-binding constructs in OA format was determined by SPR following protein A purification. […] Antigen-binding constructs in FSA format were purified by protein A affinity and SEC prior to assessment of affinity by SPR.

The target of assay [2] is T1, Recombinant human HER2. Description: SPR, variant captured on anti-human Fc, HER2 flowed, 25 C, pre-SEC.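 Also: HER2 extracellular domain binding on Biacore T200, CM5 chip with amine-coupled anti-human Fc, duplicate antigen dilutions, global 1:1 Langmuir fit, measured after protein A purification.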
Description: as §1, §2
In assay [3] the target is T2, Recombinant human HER2 (human, UniProt P04626 23-652).
T2 construct: extracellular domain; Analyte of the SPR assays; also called HER2 ECD; ECD2 of HER2
Description: SPR, Biacore T200, 25 C; variant captured on anti-human Fc, HER2 flowed.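 Also: HER2 extracellular domain analyte run as duplicate dilutions over amine-coupled anti-Fc on a CM5 chip, rates from global sensorgram fitting with a 1:1 Langmuir model.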

B1: variant 12475 (antibody, human IgG1, kappa)
heavy: EVQLVESGGGLVQPGGSLRLSCAASGFRFTDYTMDWVRQAPGKGLEWVADVNPNSGGSIYNQRFKGRFTLSVDRSKNTLYLQMNSLRAEDTAVYYCARNLGPSFYFDYWGQGTLVTVSSASTKGPSVFPLAPSSKSTSGGTAALGCLVKDYFPEPVTVSWNSGALTSGVHTFPAVLQSSGLYSLSSVVTVPSSSLGTQTYICNVNHKPSNTKVDKKVEPKSCDKTHTCPPCPAPELLGGPSVFLFPPKPKDTLMISRTPEVTCVVVDVSHEDPEVKFNWYVDGVEVHNAKTKPREEQYNSTYRVVSVLTVLHQDWLNGKEYKCKVSNKALPAPIEKTISKAKGQPREPQVYVYPPSRDELTKNQVSLTCLVKGFYPSDIAVEWESNGQPENNYKTTPPVLDSDGSFALVSKLTVDKSRWQQGNVFSCSVMHEALHNHYTQKSLSLSPG
light: not shown
chain: not shown
notes: one-armed (OA) pertuzumab variant, HC T28R (Kabat); also called v12475
Consider B1, for which the “Ka, mut/Ka, WT” value in assay [1] was 0.4. Besides, the Kd in assay [2] was determined as 45 nM.

B2: variant 12492 (antibody, human IgG1, kappa)
heavy: EVQLVESGGGLVQPGGSLRLSCAASGFTFTDYTMDWVRQAPGKGLEWVADVNPNSGWSIYNQRFKGRFTLSVDRSKNTLYLQMNSLRAEDTAVYYCARNLGPSFYFDYWGQGTLVTVSSASTKGPSVFPLAPSSKSTSGGTAALGCLVKDYFPEPVTVSWNSGALTSGVHTFPAVLQSSGLYSLSSVVTVPSSSLGTQTYICNVNHKPSNTKVDKKVEPKSCDKTHTCPPCPAPELLGGPSVFLFPPKPKDTLMISRTPEVTCVVVDVSHEDPEVKFNWYVDGVEVHNAKTKPREEQYNSTYRVVSVLTVLHQDWLNGKEYKCKVSNKALPAPIEKTISKAKGQPREPQVYVYPPSRDELTKNQVSLTCLVKGFYPSDIAVEWESNGQPENNYKTTPPVLDSDGSFALVSKLTVDKSRWQQGNVFSCSVMHEALHNHYTQKSLSLSPG
light: not shown
chain: not shown
notes: OA pertuzumab variant, HC G56W (Kabat); also called v12492
Take B2: the “Ka, mut/Ka, WT” value in assay [1] was determined as 1.1. For the same molecule, the Kd in assay [2] is 17 nM.

B3: variant 12488 (antibody, human IgG1, kappa)
heavy: EVQLVESGGGLVQPGGSLRLSCAASGFTFTDYTMDWVRQAPGKGLEWVADVNPNSGRSIYNQRFKGRFTLSVDRSKNTLYLQMNSLRAEDTAVYYCARNLGPSFYFDYWGQGTLVTVSSASTKGPSVFPLAPSSKSTSGGTAALGCLVKDYFPEPVTVSWNSGALTSGVHTFPAVLQSSGLYSLSSVVTVPSSSLGTQTYICNVNHKPSNTKVDKKVEPKSCDKTHTCPPCPAPELLGGPSVFLFPPKPKDTLMISRTPEVTCVVVDVSHEDPEVKFNWYVDGVEVHNAKTKPREEQYNSTYRVVSVLTVLHQDWLNGKEYKCKVSNKALPAPIEKTISKAKGQPREPQVYVYPPSRDELTKNQVSLTCLVKGFYPSDIAVEWESNGQPENNYKTTPPVLDSDGSFALVSKLTVDKSRWQQGNVFSCSVMHEALHNHYTQKSLSLSPG
light: not shown
chain: not shown
notes: OA pertuzumab variant, HC G56R (Kabat); also called v12488
With B3, the “Ka, mut/Ka, WT” value in assay [1] was found to be 0.6. The Kd in assay [2] came to 30 nM.

B4: variant 12487 (antibody, human IgG1, kappa)
heavy: EVQLVESGGGLVQPGGSLRLSCAASGFTFTDYTMDWVRQAPGKGLEWVADVNPNSGKSIYNQRFKGRFTLSVDRSKNTLYLQMNSLRAEDTAVYYCARNLGPSFYFDYWGQGTLVTVSSASTKGPSVFPLAPSSKSTSGGTAALGCLVKDYFPEPVTVSWNSGALTSGVHTFPAVLQSSGLYSLSSVVTVPSSSLGTQTYICNVNHKPSNTKVDKKVEPKSCDKTHTCPPCPAPELLGGPSVFLFPPKPKDTLMISRTPEVTCVVVDVSHEDPEVKFNWYVDGVEVHNAKTKPREEQYNSTYRVVSVLTVLHQDWLNGKEYKCKVSNKALPAPIEKTISKAKGQPREPQVYVYPPSRDELTKNQVSLTCLVKGFYPSDIAVEWESNGQPENNYKTTPPVLDSDGSFALVSKLTVDKSRWQQGNVFSCSVMHEALHNHYTQKSLSLSPG
light: not shown
chain: not shown
notes: OA pertuzumab variant, HC G56K (Kabat); also called v12487
With B4, in assay [1], the “Ka, mut/Ka, WT” value was 0.4. The Kd in assay [2] was 44 nM.

B5: variant 12477 (antibody, human IgG1, kappa)
heavy: EVQLVESGGGLVQPGGSLRLSCAASGFTFRDYTMDWVRQAPGKGLEWVADVNPNSGGSIYNQRFKGRFTLSVDRSKNTLYLQMNSLRAEDTAVYYCARNLGPSFYFDYWGQGTLVTVSSASTKGPSVFPLAPSSKSTSGGTAALGCLVKDYFPEPVTVSWNSGALTSGVHTFPAVLQSSGLYSLSSVVTVPSSSLGTQTYICNVNHKPSNTKVDKKVEPKSCDKTHTCPPCPAPELLGGPSVFLFPPKPKDTLMISRTPEVTCVVVDVSHEDPEVKFNWYVDGVEVHNAKTKPREEQYNSTYRVVSVLTVLHQDWLNGKEYKCKVSNKALPAPIEKTISKAKGQPREPQVYVYPPSRDELTKNQVSLTCLVKGFYPSDIAVEWESNGQPENNYKTTPPVLDSDGSFALVSKLTVDKSRWQQGNVFSCSVMHEALHNHYTQKSLSLSPG
light: not shown
chain: not shown
notes: OA pertuzumab variant, HC T30R (Kabat); also called v12477
As to B5, the “Ka, mut/Ka, WT” value in assay [1] was found to be 0.9. Further, the Kd in assay [2] was 23 nM.

B6: variant 12476 (antibody, human IgG1, kappa)
heavy: EVQLVESGGGLVQPGGSLRLSCAASGFKFTDYTMDWVRQAPGKGLEWVADVNPNSGGSIYNQRFKGRFTLSVDRSKNTLYLQMNSLRAEDTAVYYCARNLGPSFYFDYWGQGTLVTVSSASTKGPSVFPLAPSSKSTSGGTAALGCLVKDYFPEPVTVSWNSGALTSGVHTFPAVLQSSGLYSLSSVVTVPSSSLGTQTYICNVNHKPSNTKVDKKVEPKSCDKTHTCPPCPAPELLGGPSVFLFPPKPKDTLMISRTPEVTCVVVDVSHEDPEVKFNWYVDGVEVHNAKTKPREEQYNSTYRVVSVLTVLHQDWLNGKEYKCKVSNKALPAPIEKTISKAKGQPREPQVYVYPPSRDELTKNQVSLTCLVKGFYPSDIAVEWESNGQPENNYKTTPPVLDSDGSFALVSKLTVDKSRWQQGNVFSCSVMHEALHNHYTQKSLSLSPG
light: not shown
chain: not shown
notes: OA pertuzumab variant, HC T28K (Kabat); also called v12476
As for B6, in assay [1], the “Ka, mut/Ka, WT” value worked out at 0.3. Moreover, in assay [2], the Kd is 61 nM.

B7: variant 12495 (antibody, human IgG1, kappa)
heavy: EVQLVESGGGLVQPGGSLRLSCAASGFTFTDYTMDWVRQAPGKGLEWVADVNPNSGGSFYNQRFKGRFTLSVDRSKNTLYLQMNSLRAEDTAVYYCARNLGPSFYFDYWGQGTLVTVSSASTKGPSVFPLAPSSKSTSGGTAALGCLVKDYFPEPVTVSWNSGALTSGVHTFPAVLQSSGLYSLSSVVTVPSSSLGTQTYICNVNHKPSNTKVDKKVEPKSCDKTHTCPPCPAPELLGGPSVFLFPPKPKDTLMISRTPEVTCVVVDVSHEDPEVKFNWYVDGVEVHNAKTKPREEQYNSTYRVVSVLTVLHQDWLNGKEYKCKVSNKALPAPIEKTISKAKGQPREPQVYVYPPSRDELTKNQVSLTCLVKGFYPSDIAVEWESNGQPENNYKTTPPVLDSDGSFALVSKLTVDKSRWQQGNVFSCSVMHEALHNHYTQKSLSLSPG
light: not shown
chain: not shown
notes: OA pertuzumab variant, HC I58F (Kabat); also called v12495
As for B7, the “Ka, mut/Ka, WT” value in assay [1] came out at 0.4. For the same molecule, the Kd in assay [2] was determined as 50 nM.

B8: variant 12486 (antibody, human IgG1, kappa)
heavy: EVQLVESGGGLVQPGGSLRLSCAASGFTFTDYTMDWVRQAPGKGLEWVADVNPNHGGSIYNQRFKGRFTLSVDRSKNTLYLQMNSLRAEDTAVYYCARNLGPSFYFDYWGQGTLVTVSSASTKGPSVFPLAPSSKSTSGGTAALGCLVKDYFPEPVTVSWNSGALTSGVHTFPAVLQSSGLYSLSSVVTVPSSSLGTQTYICNVNHKPSNTKVDKKVEPKSCDKTHTCPPCPAPELLGGPSVFLFPPKPKDTLMISRTPEVTCVVVDVSHEDPEVKFNWYVDGVEVHNAKTKPREEQYNSTYRVVSVLTVLHQDWLNGKEYKCKVSNKALPAPIEKTISKAKGQPREPQVYVYPPSRDELTKNQVSLTCLVKGFYPSDIAVEWESNGQPENNYKTTPPVLDSDGSFALVSKLTVDKSRWQQGNVFSCSVMHEALHNHYTQKSLSLSPG
light: not shown
chain: not shown
notes: OA pertuzumab variant, HC S54H (Kabat); also called v12486
B8: the “Ka, mut/Ka, WT” value in assay [1] was 0.2. Moreover, in assay [2], the Kd amounted to 92 nM.

B9: variant 12496 (antibody, human IgG1, kappa)
heavy: EVQLVESGGGLVQPGGSLRLSCAASGFTFTDYTMDWVRQAPGKGLEWVADVNPNSGGSYYNQRFKGRFTLSVDRSKNTLYLQMNSLRAEDTAVYYCARNLGPSFYFDYWGQGTLVTVSSASTKGPSVFPLAPSSKSTSGGTAALGCLVKDYFPEPVTVSWNSGALTSGVHTFPAVLQSSGLYSLSSVVTVPSSSLGTQTYICNVNHKPSNTKVDKKVEPKSCDKTHTCPPCPAPELLGGPSVFLFPPKPKDTLMISRTPEVTCVVVDVSHEDPEVKFNWYVDGVEVHNAKTKPREEQYNSTYRVVSVLTVLHQDWLNGKEYKCKVSNKALPAPIEKTISKAKGQPREPQVYVYPPSRDELTKNQVSLTCLVKGFYPSDIAVEWESNGQPENNYKTTPPVLDSDGSFALVSKLTVDKSRWQQGNVFSCSVMHEALHNHYTQKSLSLSPG
light: not shown
chain: not shown
notes: OA pertuzumab variant, HC I58Y (Kabat); also called v12496
Turning to B9, the “Ka, mut/Ka, WT” value in assay [1] stood at 0.3. For the same molecule, the Kd in assay [2] was 66 nM.

B10: Variant 14052 (antibody, human IgG1, kappa)
heavy: EVQLVESGGGLVQPGGSLRLSCAASGFTFTDYTMDWVRQAPGKGLEWVADVNPNSGGSIYNQRFKGRFTLSVDRSKNTLYLQMNSLRAEDTAVYYCARNLGPWFYFDYWGQGTLVTVSSASTKGPSVFPLAPSSKSTSGGTAALGCLVKDYFPEPVTVSWNSGALTSGVHTFPAVLQSSGLYSLSSVVTVPSSSLGTQTYICNVNHKPSNTKVDKKVEPKSCDKTHTCPPCPAPELLGGPSVFLFPPKPKDTLMISRTPEVTCVVVDVSHEDPEVKFNWYVDGVEVHNAKTKPREEQYNSTYRVVSVLTVLHQDWLNGKEYKCKVSNKALPAPIEKTISKAKGQPREPQVYVYPPSRDELTKNQVSLTCLVKGFYPSDIAVEWESNGQPENNYKTTPPVLDSDGSFALVSKLTVDKSRWQQGNVFSCSVMHEALHNHYTQKSLSLSPG
light: not shown
chain: not shown
notes: OA (one-armed) format; clones 7852, 8781, 4372; also called v14052
In the case of B10, in assay [3], the Kd amounted to 55 nM, the koff came out at 0.0053 s⁻¹ and the association rate constant (kon) stood at 97000 M⁻¹ s⁻¹.

B11: variant 12481 (antibody, human IgG1, kappa)
heavy: EVQLVESGGGLVQPGGSLRLSCAASGFTFKDYTMDWVRQAPGKGLEWVADVNPNSGGSIYNQRFKGRFTLSVDRSKNTLYLQMNSLRAEDTAVYYCARNLGPSFYFDYWGQGTLVTVSSASTKGPSVFPLAPSSKSTSGGTAALGCLVKDYFPEPVTVSWNSGALTSGVHTFPAVLQSSGLYSLSSVVTVPSSSLGTQTYICNVNHKPSNTKVDKKVEPKSCDKTHTCPPCPAPELLGGPSVFLFPPKPKDTLMISRTPEVTCVVVDVSHEDPEVKFNWYVDGVEVHNAKTKPREEQYNSTYRVVSVLTVLHQDWLNGKEYKCKVSNKALPAPIEKTISKAKGQPREPQVYVYPPSRDELTKNQVSLTCLVKGFYPSDIAVEWESNGQPENNYKTTPPVLDSDGSFALVSKLTVDKSRWQQGNVFSCSVMHEALHNHYTQKSLSLSPG
light: not shown
chain: not shown
notes: OA pertuzumab variant, HC T30K (Kabat); also called v12481
In the case of B11, in assay [1], the “Ka, mut/Ka, WT” value turned out to be 0.1. Also, in assay [2], the equilibrium dissociation constant (Kd) is 310 nM.

What is called Kd is the concentration at which binding is half-saturated. What is called koff is the rate constant with which the complex falls apart. A word on the kon: it is the second-order rate constant of association.
